# Article PMC6721692, “Extracellular Juxtamembrane Motif Critical for TrkB Preformed Dimer and Activation” (Cells, 2019)
# B1: TrkBdelECD365-eGFP (human truncated TrkB lacking the ECD up to residue 365, EJM retained) (domain or fragment)
# chain: not shown
# notes: EJM, transmembrane and intracellular parts retained; amplified from pGFP-hTrkB with the printed primers; The signal peptide of the vector pGFP-hTrkB is not described; also called hTrkBdelECD365-eGFP; TrkB lacking ECD365; source: CHO cells, stably transfected (CHO-TrkBdelECD365-eGFP), in lysate; not shown: eGFP, C-terminal, kept
# Biological target: the molecule itself
# Test: native gel or EMSA; native PAGE (no SDS, no β-ME) of lysates of CHO-TrkBdelECD365-eGFP cells treated with vehicle, BDNF or MM12 (1.0 nM, 37 °C); Western blot with MM12
protein,measurement,value
B1,stoichiometry N,2
